Experimental data as given in patent US20250163181A1.

Experiments:
[1] = biological target: prothrombin variant S91A/Y93A (human) (UniProt P00734); test: SPR, calculated from Kd
[2] = biological target: human prothrombin wild-type (human) (UniProt P00734); test: SPR, calculated from Kd
[3] = biological target: kringle-2 of human prothrombin (amino acids 156-271) (human) (UniProt P00734); test: SPR, calculated from Kd
[4] = biological target: human prothrombin wild-type (human) (UniProt P00734); test: SPR, calculated from Kd; prothrombin with 200 µM argatroban
[5] = biological target: human prothrombin wild-type (human) (UniProt P00734); test: SPR, AHP immobilised; prothrombin with 200 µM argatroban (open form)
[6] = biological target: prothrombin variant S91A/Y93A (human) (UniProt P00734); test: SPR, AHP immobilised, HEPES buffer, 25 C
[7] = biological target: human prothrombin wild-type (human) (UniProt P00734); test: SPR, AHP immobilised, HEPES buffer, 25 C
[8] = biological target: kringle-2 of human prothrombin (amino acids 156-271) (human) (UniProt P00734); test: SPR, AHP immobilised, HEPES buffer, 25 C
[9] = biological target: prothrombin variant S91A/Y93A (human) (UniProt P00734); test: ELISA, antigen immobilised, Hill fit
[10] = biological target: human prothrombin wild-type (human) (UniProt P00734); test: ELISA, antigen immobilised, Hill fit
[11] = biological target: kringle-2 of human prothrombin (amino acids 156-271) (human) (UniProt P00734); test: ELISA, antigen immobilised, Hill fit

Antibody AHP (Prolytix AHP-5013)
ΔG [1]: -10.5 kcal/mol
ΔG [2]: -10.1 kcal/mol
ΔG [3]: -10.3 kcal/mol
ΔG [4]: -10.1 kcal/mol
Kd [5]: 37.4 nM
koff [5]: 0.000122 s⁻¹
kon [5]: 3270 M⁻¹ s⁻¹
Kd [6]: 19.5 nM
koff [6]: 0.000123 s⁻¹
kon [6]: 6320 M⁻¹ s⁻¹
Kd [7]: 38.3 nM
koff [7]: 0.000136 s⁻¹
kon [7]: 3540 M⁻¹ s⁻¹
Kd [8]: 27.8 nM
koff [8]: 0.000128 s⁻¹
kon [8]: 4600 M⁻¹ s⁻¹
EC50 [9]: 0.185 µg/mL
EC50 [10]: 0.195 µg/mL
EC50 [11]: 0.249 µg/mL
